Measurements from PMC4224607 (Chemical communications (Cambridge, England), 2014).
Non-standard residues stand in square brackets, D forms with d. No end group written: not given here.

Target: human carbonic anhydrase II (human, UniProt P00918 1-260)
Test: SPR

B1: fplsk (peptide)
peptide: [dF][dP][dL][dS][dK]
  Kd: 5.8 µM
